From paper PMC2847587 (Molecular cell, 2010)

B1: FANCA (natural protein, human (endogenous in HeLa), UniProt O15360 1-1455, looked up)
chain: MSDSWVPNSASGQDPGGRRRAWAELLAGRVKREKYNPERAQKLKESAVRLLRSHQDLNALLLEVEGPLCKKLSLSKVIDCDSSEAYANHSSSFIGSALQDQASRLGVPVGILSAGMVASSVGQICTAPAETSHPVLLTVEQRKKLSSLLEFAQYLLAHSMFSRLSFCQELWKIQSSLLLEAVWHLHVQGIVSLQELLESHPDMHAVGSWLFRNLCCLCEQMEASCQHADVARAMLSDFVQMFVLRGFQKNSDLRRTVEPEKMPQVTVDVLQRMLIFALDALAAGVQEESSTHKIVRCWFGVFSGHTLGSVISTDPLKRFFSHTLTQILTHSPVLKASDAVQMQREWSFARTHPLLTSLYRRLFVMLSAEELVGHLQEVLETQEVHWQRVLSFVSALVVCFPEAQQLLEDWVARLMAQAFESCQLDSMVTAFLVVRQAALEGPSAFLSYADWFKASFGSTRGYHGCSKKALVFLFTFLSELVPFESPRYLQVHILHPPLVPGKYRSLLTDYISLAKTRLADLKVSIENMGLYEDLSSAGDITEPHSQALQDVEKAIMVFEHTGNIPVTVMEASIFRRPYYVSHFLPALLTPRVLPKVPDSRVAFIESLKRADKIPPSLYSTYCQACSAAEEKPEDAALGVRAEPNSAEEPLGQLTAALGELRASMTDPSQRDVISAQVAVISERLRAVLGHNEDDSSVEISKIQLSINTPRLEPREHMAVDLLLTSFCQNLMAASSVAPPERQGPWAALFVRTMCGRVLPAVLTRLCQLLRHQGPSLSAPHVLGLAALAVHLGESRSALPEVDVGPPAPGAGLPVPALFDSLLTCRTRDSLFFCLKFCTAAISYSLCKFSSQSRDTLCSCLSPGLIKKFQFLMFRLFSEARQPLSEEDVASLSWRPLHLPSADWQRAALSLWTHRTFREVLKEEDVHLTYQDWLHLELEIQPEADALSDTERQDFHQWAIHEHFLPESSASGGCDGDLQAACTILVNALMDFHQSSRSYDHSENSDLVFGGRTGNEDIISRLQEMVADLELQQDLIVPLGHTPSQEHFLFEIFRRRLQALTSGWSVAASLQRQRELLMYKRILLRLPSSVLCGSSFQAEQPITARCEQFFHLVNSEMRNFCSHGGALTQDITAHFFRGLLNACLRSRDPSLMVDFILAKCQTKCPLILTSALVWWPSLEPVLLCRWRRHCQSPLPRELQKLQEGRQFASDFLSPEAASPAPNPDWLSAAALHFAIQQVREENIRKQLKKLDCEREELLVFLFFFSLMGLLSSHLTSNSTTDLPKAFHVCAAILECLEKRKISWLALFQLTESDLRLGRLLLRVAPDQHTRLLPFAFYSLLSYFHEDAAIREEAFLHVAVDMYLKLVQLFVAGDTSTVSPPAGRSLELKGQGNPVELITKARLFLLQLIPRCPKKSFSHVAELLADRGDCDPEVSAALQSRQQAAPDADLSQEPHLF
B2: FAAP24 (natural protein, human (endogenous in HeLa), UniProt Q9BTP7 1-215, looked up)
chain: MEKNPPDDTGPVHVPLGHIVANEKWRGSQLAQEMQGKIKLIFEDGLTPDFYLSNRCCILYVTEADLVAGNGYRKRLVRVRNSNNLKGIVVVEKTRMSEQYFPALQKFTVLDLGMVLLPVASQMEASCLVIQLVQEQTKEPSKNPLLGKKRALLLSEPSLLRTVQQIPGVGKVKAPLLLQKFPSIQQLSNASIGELEQVVGQAVAQQIHAFFTQPR

What was measured:
Assay in all cases: immunodepletion
[1] = target: MHF1 (FANCM-associated Histone Fold protein 1) (human (endogenous in HeLa), UniProt Q8N2Z9-1 1-138)
[2] = target: B2
[3] = target: MHF2 (FANCM-associated Histone Fold protein 2) (human (endogenous in HeLa), UniProt A8MT69 1-81)
[4] = target: B1

Chain of MHF2 (FANCM-associated Histone Fold protein 2) (A8MT69 whole entry): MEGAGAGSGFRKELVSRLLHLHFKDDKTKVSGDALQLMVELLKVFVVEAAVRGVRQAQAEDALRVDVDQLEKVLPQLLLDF
Chain of MHF1 (FANCM-associated Histone Fold protein 1) (Q8N2Z9 whole entry): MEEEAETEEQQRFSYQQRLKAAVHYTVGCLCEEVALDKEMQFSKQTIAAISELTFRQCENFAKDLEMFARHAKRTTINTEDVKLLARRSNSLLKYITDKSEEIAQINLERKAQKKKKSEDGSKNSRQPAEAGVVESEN

| percent co-depleted [1] [%] | percent co-depleted [2] [%] | percent co-depleted [3] [%] | percent co-depleted [4] [%] | Binder |
| --- | --- | --- | --- | --- |
| < 25 | < 25 | < 25 |  | B1 |
|  |  |  | < 30 | B2 |
